Drawing on patent publication US20160303245A1, “FATTY ACID DERIVATIVES OF DIMERIC INHIBITORS OF PSD-95” (UNIVERSITY OF COPENHAGEN, priority 2013, published 2016), this text covers fb (%), fraction bound to HSA, fu (%), fraction unbound and Kd for one substance.

By Kd is commonly meant the constant that tells how readily two partners part at equilibrium.

The target of assay [1] is Human Serum Albumin (human) (UniProt P02768). The experiment in a line: calculated from KD at 588 µM HSA (equation 2).
Assay [2] has the same target. Briefly: calculated from KD(HSA) at 150 µM HSA (equation 2).
Assay [3] shares this target. The experiment in a line: Transil XL HSA binding kit (immobilized HSA), unbound compound by RP-HPLC.

For the substance UCCB01-144 (peptide), the fb (%), fraction bound to HSA in assay [1] is 65.3%. The fu (%), fraction unbound in assay [2] is 67.9%. Moreover, in assay [3], the Kd was found to be 318 µM.
